Article PMC11500415, “Chemical inhibition of stomatal differentiation by perturbation of the master-regulatory bHLH heterodimer via an ACT-Like domain” (Nature Communications, 2024)
“And” between values parts separate entries of the source, which are not always exact repeats. Identical values can stand only once.

T1: SCREAM (SCRM), recombinant full-length protein (1-494) (A. thaliana, UniProt Q9LSE2 1-494)
T1 construct: SCRM (ICE1), A. thaliana, residues 1-494; called full-length in the results; The methods describe thrombin removal of GST for all recombinant proteins; For the BLI runs of SCRM with MUTE one partner must have kept GST (anti-GST probes); also called ICE1; source: E. coli BL21, purified (glutathione resin, thrombin digestion, Superdex-200); not shown: GST, N-terminal, cleaved
T1 sequence (looked up): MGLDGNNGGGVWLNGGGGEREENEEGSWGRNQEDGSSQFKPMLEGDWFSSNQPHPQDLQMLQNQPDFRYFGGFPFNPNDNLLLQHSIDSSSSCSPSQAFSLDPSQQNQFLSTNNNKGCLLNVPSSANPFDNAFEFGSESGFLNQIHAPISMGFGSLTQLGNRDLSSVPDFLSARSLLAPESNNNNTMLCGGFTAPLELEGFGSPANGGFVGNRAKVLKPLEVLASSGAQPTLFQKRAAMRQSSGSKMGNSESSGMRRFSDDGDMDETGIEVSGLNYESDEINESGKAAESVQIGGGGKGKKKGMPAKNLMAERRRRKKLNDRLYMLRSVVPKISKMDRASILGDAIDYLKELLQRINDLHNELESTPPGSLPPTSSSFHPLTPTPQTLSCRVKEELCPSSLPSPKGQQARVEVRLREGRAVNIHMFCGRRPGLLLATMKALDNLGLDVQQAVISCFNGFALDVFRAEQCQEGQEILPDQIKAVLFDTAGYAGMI


Assays:
[1] = test system: Commelina benghalensis stomatal opening induced by light; test: Measurement of stomatal opening; assay type: in vivo; conditions: leaf discs 1-6
Description: The experiments were performed as described previously[30],[68]. Briefly, Stomidazolone or ABA were added to a multi-well plate with basal buffer [5 mM MES/bistrispropane (pH 6.5), 50 mM KCl, and 0.1 mM CaCl2] to be diluted to a final concentration of 50 or 20 µM, respectively. C. benghalensis plants were incubated in the dark overnight; then, 4 mm diameter leaf discs were excised from fully expanded leaves using a hole punch (Biopsy Punch, Kai Medical). Samples were immersed in a basal buffer containing compounds for 30 min before being exposed to light (150 µmol m^−2 s^−1 red light and 50 µmol m^−2 s^−1 blue light) for 3 h. The stomatal apertures were observed using a stereoscopic microscope (BX43; Olympus). The microscopic images were acquired with a charge-coupled device (CCD) camera (DP27; Olympus), followed by autofocus image processing using cellSens standard software (Olympus). Measurement of stomatal apertures of C. benghalensis was performed by using an automation program, DeepStomata[69].

[2] = test system: Arabidopsis wild-type (WT) seedlings; test: Stomatal development bioassay, seedlings in liquid culture; assay type: in vivo; conditions: 50 μM
Description: Arabidopsis accession Columbia (Col-0) was used as wild-type. […] Their genotype and transcript reduction were confirmed. The presence of transgenes/mutant alleles were confirmed by genotyping. For liquid culture with Stomidazolone (AYSJ929, compound 3), the analogs (AYSJ1059 (compound 5) and AYSJ1061 (compound 6)), degraded compound lzx103 (compound 4), and SIM3* (compound 7), all compounds were dissolved in dimethyl sulfoxide (DMSO, Molecular biology grade, Fujifilm Wako, Japan 046-21981), Col-0 seeds were sown in 96-well plates (TL5003; True Line) containing 95 μL of 1/2 MS media containing 0.5% sucrose with rotary shaking at 140 rpm under continuous light at 22 °C. Five μL of compounds were dissolved in DMSO at 10 mM and diluted with liquid 1/2 MS media to 1 mM and added on 1-day-old seedlings (final concentration, 50 μM). Seedlings were incubated for 8 days, and at day 9 seedling abaxial cotyledons were observed through confocal microscopy. For liquid culture of scrm-D_S343 and scrm-D_S423, 1/2 MS liquid media without sucrose was used. For the solid culture, 0, 20, 50 or 100 μM Stomidazolone were solidified with low-melting agarose (5805S, PrimeGelTM Agarose LMT 1-20 K, TAKARA Bio). Briefly, 1/2 MS salt, 0.5% sucrose, and 0.8% low melting agarose were mixed in water and autoclaved. After cooling the medium at around 30 °C, Stomidazolone (500x, dissolved in DMSO) was added and poured into 90 mm petri dishes (Asnol Petri Dish JP φ90 x 15 mm, 3-1491-01, AS ONE). Col-0 seeds were sown on Stomidazolone-containing 1/2 MS agarose media and grown under continuous light for 9 days.
For confocal microscopy, cell peripheries of seedlings were visualized with propidium iodide (Sigma, P4170). Images were acquired using LSM800 or LSM700 (Zeiss) using a 20x lens. The GFP, YFP reporter and PI signals were detected with excitation at 488 nm and an emission filter of 410 to 546 nm, at 488 nm and an emission filter of 410 to 546 nm, and with excitation at 561 nm and 582–617 nm emission range, respectively. Raw data were collected with 1024 × 1024 pixel images. For qualitative image presentation, Adobe Photoshop CC was used to trim and uniformly adjust the contrast/brightness.
For quantitative analysis of the abaxial leaf epidermis, confocal images were taken on the days after germination as indicated in the Figure legends. Preparation of images was done as described previously[32],[70]. For counting epidermal cell types, stomatal density, stomatal precursor cells (meristemoids), total stomata-lineage cells (stomata and meristemoids) were calculated by counting cell types in an area of 0.4 mm^2 (0.63 mm × 0.63 mm) and plotted as per mm^2. A series of Z-stack confocal images was obtained to obtain images covering the epidermis and capturing GFP/YFP signal from the reporter lines. The area and the number of epidermal cells were quantified by using FIJI-ImageJ. Statistical analyses were performed using R ver. 4.0.2. Sample sizes (n) are indicated and defined in each legend. For the multiple sample comparison, 1-way ANOVA was performed followed by a post hoc Tukey HSD test. For the two-sample comparison, Student’s T-test was performed. Graphs were generated using R ggplot2 package. For all boxplots, each box represents IQR (interquartile range), in which top, middle line, and bottom indicating 75, 50, and 25 percentiles, respectively, and the bar representing maximum to minimal values. Each magenta dot represents jittered individual data point. The datapoints that go beyond the bar are outliers, which are indicated as black dots. If the data point is greater than Q3 + 1.5*IQR (above the third quartile is greater than 1.5 times of the interquartile range) or less than Q1 − 1.5*IQR, that data point is classified as outlier. The color of Boxplot graph was based on ColorBrewer.org. The value of n, the number of each experiment or samples, the means of error bars, and how statistical significance was defined are indicated in a relevant figure legend. […]

[3] = target: T1, SCREAM (SCRM), recombinant full-length …; test: BLI; SCRM with MUTE in the presence of AYSJ1061 (6); Octet Red96, anti-GST probes loaded with 500 nM GST-tagged protein; 30 °C; 1x PBS, 2% DMSO, 0.02% Tween20; 1:1 model; KD (SS) from steady-state analysis; conditions: both partners purified
[4] = target: T1, SCREAM (SCRM), recombinant full-length …; test: BLI; SCRM with MUTE or MUTE mutants, no compound; Octet Red96, anti-GST probes loaded with 500 nM GST-tagged protein; 30 °C; 1x PBS, 2% DMSO, 0.02% Tween20; 1:1 model; KD (SS) from steady-state analysis; conditions: both partners purified
[5] = target: T1, SCREAM (SCRM), recombinant full-length …; test: BLI; SCRM with MUTE in the presence of AYSJ1059 (5); Octet Red96, anti-GST probes loaded with 500 nM GST-tagged protein; 30 °C; 1x PBS, 2% DMSO, 0.02% Tween20; 1:1 model; KD (SS) from steady-state analysis; conditions: both partners purified
[6] = target: T1, SCREAM (SCRM), recombinant full-length …; test: BLI; SCRM with MUTE or MUTE mutants in the presence of Stomidazolone (3) (MUTE pre-incubated); Octet Red96, anti-GST probes loaded with 500 nM GST-tagged protein; 30 °C; 1x PBS, 2% DMSO, 0.02% Tween20; 1:1 model; KD (SS) from steady-state analysis; conditions: both partners purified

| Kd [4] [nM] | koff [4] [s⁻¹] | kon [4] [M⁻¹ s⁻¹] | Kd [6] [nM] | koff [6] [s⁻¹] | kon [6] [M⁻¹ s⁻¹] | Molecule | also measured |
| --- | --- | --- | --- | --- | --- | --- | --- |
|  |  |  |  |  |  | CC1=CC(=O)CC(C)(C)C1(O)/C=C/C(C)=C\C(=O)O (centres unmarked) [ABA, reference compound] | stomatal movement, value per image ([1]; ABA 20 µM, 2 images per leaf disc): 0; stomatal movement, mean from 2 images from 1 leaf disc ([1]; ABA 20 µM): 0 |
|  |  |  |  |  |  | O=C1C(c2ccccc2)=NC(NS(=O)(=O)c2ccccc2)(c2ccccc2)N1S(=O)(=O)c1ccccc1 (racemic) [AYST929] | stomatal movement, mean from 2 images from 1 leaf disc ([1]; AYST929 50 µM): 12.3654 and 10.3065 and 11.5398 and 6.9444 and 13.0998 and 7.007 |
|  |  |  |  |  |  | N=C(NS(=O)(=O)c1ccccc1)c1ccccc1 [lzx103] | effect on stomatal development (in words) ([2]; WT seedlings, liquid culture): did not cause any effects; Number of stomata per 1 mm2 of cotyledon abaxial epidermis ([2]; WT, single seedlings n=8 (Fig. S3d), listed as Izx-103): 199 per 1 mm2 and 211 per 1 mm2 and 202 per 1 mm2 and 216 per 1 mm2 and 194 per 1 mm2 and 192 per 1 mm2 and 175 per 1 mm2 |
| 6.8 ± 0.5 | 0.000147 | 24200 | 755 ± 9.5 | 0.00859 | 11400 | MUTE, recombinant full-length protein (1-202), as used in BLI with SCRM (natural protein, A. thaliana, UniProt Q9M8K6 1-202, looked up, BLI probes were anti-GST and loaded with 500 nM GST-tagged protein; source: E. coli BL21, purified (glutathione resin)) MSHIAVERNRRRQMNEHLKSLRSLTPCFYIKRGDQASIIGGVIEFIKELQQLVQVLESKKRRKTLNRPSFPYDHQTIEPSSLGAATTRVPFSRIENVMTTSTFKEVGACCNSPHANVEAKISGSNVVLRVVSRRIVGQLVKIISVLEKLSFQVLHLNISSMEETVLYFFVVKIGLECHLSLEELTLEVQKSFVSDEVIVSTN | Kd [3]: 12.8 ± 0.8 nM; koff [3]: 0.000234 s⁻¹; kon [3]: 18200 M⁻¹ s⁻¹; Kd [5]: 8.8 ± 0.6 nM; koff [5]: 0.000188 s⁻¹; kon [5]: 21300 M⁻¹ s⁻¹ |
| 26.5 ± 3.7 | 0.000414 | 15600 | 96.5 ± 12.8 | 0.000336 | 3480 | MUTE_R133A_R134A_E162A_E163A, recombinant (natural protein, A. thaliana, UniProt Q9M8K6 1-202, looked up, MUTE, A. thaliana, with R133A, R134A, E162A and E163A; source: E. coli BL21, purified (glutathione resin)) MSHIAVERNRRRQMNEHLKSLRSLTPCFYIKRGDQASIIGGVIEFIKELQQLVQVLESKKRRKTLNRPSFPYDHQTIEPSSLGAATTRVPFSRIENVMTTSTFKEVGACCNSPHANVEAKISGSNVVLRVVSAAIVGQLVKIISVLEKLSFQVLHLNISSMAATVLYFFVVKIGLECHLSLEELTLEVQKSFVSDEVIVSTN |  |
| 22.5 ± 1.8 | 0.000256 | 11300 | 62.5 ± 8.2 | 0.000834 | 13300 | MUTE_R133A_R134A, recombinant (natural protein, A. thaliana, UniProt Q9M8K6 1-202, looked up, MUTE, A. thaliana, with R133A and R134A; source: E. coli BL21, purified (glutathione resin)) MSHIAVERNRRRQMNEHLKSLRSLTPCFYIKRGDQASIIGGVIEFIKELQQLVQVLESKKRRKTLNRPSFPYDHQTIEPSSLGAATTRVPFSRIENVMTTSTFKEVGACCNSPHANVEAKISGSNVVLRVVSAAIVGQLVKIISVLEKLSFQVLHLNISSMEETVLYFFVVKIGLECHLSLEELTLEVQKSFVSDEVIVSTN |  |
| 11.5 ± 2.6 | 0.000334 | 29000 | 30.5 ± 4.8 | 0.000634 | 20700 | MUTE_E162A_E163A, recombinant (natural protein, A. thaliana, UniProt Q9M8K6 1-202, looked up, MUTE, A. thaliana, with E162A and E163A; source: E. coli BL21, purified (glutathione resin)) MSHIAVERNRRRQMNEHLKSLRSLTPCFYIKRGDQASIIGGVIEFIKELQQLVQVLESKKRRKTLNRPSFPYDHQTIEPSSLGAATTRVPFSRIENVMTTSTFKEVGACCNSPHANVEAKISGSNVVLRVVSRRIVGQLVKIISVLEKLSFQVLHLNISSMAATVLYFFVVKIGLECHLSLEELTLEVQKSFVSDEVIVSTN |  |
